Measured values from patent US20120093811A1 (published 2012).

T1: VEGF-D (recombinant human; source not given) (human, UniProt O43915 89-205, limits assumed)
T1 construct: also used here as target of IC50 values averaged over Source 1 and Source 2; also called vascular endothelial growth factor-D
T1 sequence: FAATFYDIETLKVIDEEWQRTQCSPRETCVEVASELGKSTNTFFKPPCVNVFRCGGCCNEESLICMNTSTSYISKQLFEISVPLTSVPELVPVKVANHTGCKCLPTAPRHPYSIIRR


Molecular target: T1, VEGF-D (recombinant human; source not …)
Assay: SPR (BIAcore) off-rate ranking of scFv clones
Procedure: Screening based on scFv binding properties involved surface plasmon resonance (SPR) measurements with a BIAcore™ biosensor. scFv variants were expressed in 200 μL E. coli cultures and the supernatants used to generate crude off-rate only kinetics, which were assessed “relative” to 1A, or other variants.

koff [s⁻¹] | Binder
0.00795 | scFv clone AA16 (scFv) scFv: QAQLVQSGAEVKQPGASVKVSCKASGYTFTGYNMYWVRQAPGQGLEWMGYIDPYNGDTTYNQKFKGRVTMTTDTSTSTAYMELRSLRSDDTAVYYCARTSYYGGMDYWGRGTLVTVASGGGASGGGGSGGGGSDIVMTQTPLSSPVTLGQPASISCRSSQSLVHSNGNTYLHWLQQRPGQPPRLLIYKVSNRFSGVPDRFSGSGAGTDFTLKISRVEAEDVGVYYCSQSTHVPRTFGQGTKLEIKR
0.00522 | scFv clone CK61 (scFv) scFv: QVQLVQSGAKVKQPGASVKVSCKASGYTFTGYNMYWVRQAPGQGLEWMGYIDPYNGDTTYNQKFKGRVTMTTDTSTSTAYMKLRSLRSDDTAVYYCARTSYYGGMDYWGRGTLVTVASGGGASGGGGSGGGGSDIVMTQTPLSSPVTLGQPASISCRSSQSLVHSNGNTYLHWLQQRPGQPPRLLIYKVSNRFSGVPDRFSGSGAGTDFTLKISRVEAEDVGVYYCSQSTHVPRTFGQGTKLEIKR
0.00759 | scFv clone CZ24 (scFv) scFv: QVQLVQSGAKVKQPGANVKASCKASGYTFTGYNMYWVRQAPGQGLEWMGYIDPYNGDTTYNQKFKGRVTMTTDTSTSTAYMELRSLRSDDTAVYYCARTSYYGGMDYWGRGTLVTVASGGGASGGGGSGGGGSDIVMTQTPLSSPVTLGQPASISCRSSQSLVHSNGNTYLHWLQQRPGQPPRLLIYKVSNRFSGVPDRFSGSGAGTDFTLKISRVEAEDVGVYYCSQSTHVPRTFGQGTKLEIKR
0.00379 | scFv clone CI67 (scFv) scFv: QVQLVQSGAEVKQPGASVKVSCKASGYTFTGYNMYWVRQAPGQGLEWMGYIDPYNGDTTYNQKFKGRATMTTDTSTSTAYMKLRSLRSDDTAVYYCARTSYYGGMDYWGRGTLVTVASGGGASGGGGSGGGGSDIVMTQTPLSSPVTLGQPASISCRSSQSLVHSNGNTYLHWLQQRPGQPPRLLIYKVSNRFSGVPDRFSGSGAGTDFTLKISRVEAEDVGVYYCSQSAHVPRTFGQGTKLEIKR
0.00637 | scFv clone DD76 (scFv) scFv: QVQLVQSGAKVKQPGASVKASCKASGYTFTGYNMYWVRQAPGQGLEWMGYIDPYNGDTTYNQKFKGRVTMTTDTNTSTAYMELRSLRSDDTAVYYCARTSYYGGMDYWGRGTLVTVASGGGASGGGGSGGGGSDIVMTQTPLSSPVTLGQPASISCRSSQSLVHSNGNTYLHWLQQRPGQPPRLLIYKVSNRFSGVPDRFSGSGAGTDFTLKISRVEAEDVGVYYCSQSTHVPRTFGQGTKLEIKR
0.00424 | scFv clone DA74 (scFv) scFv: QVQLAQSGAKVKQPGASVKASCKASGYTFTGYNMYWVRQAPGQGLEWMGYIDPYNGDTTYNQKFKGRVTMTTDTSTSTAYMELRSLRSDDTAVYYCARTSYYGGMDYWGRGTLVTVASGGGASGGGGSGGGGSDIVMTQTPLSSPVTLGQPASISCRSSQSLVHSNGNTYLHWLQQRPGQPPRLLIYKVSNRSSGVPDRFSGSGAGTDFTLKISRVEAEDVGVYYCSQSTHVPRTFGQGTKLEIKR
0.0091 | scFv clone DD17 (scFv) scFv: QVQLVQSGAKVKQPGAGVKASCKASGYTFTGYNMYWVRQAPGQGLEWMGYIDPYNGDTTYNQKFKGRVTMTTDTSTSTAYMELRSLRSDDTAVYYCARTSYYGGMDYWGRGTLVTVASGGGASGGGGSGGGGSDIVMTQTPLSSPVTLGQPASISCRSSQSLVHSNGNTYLHWLQQRPGQPPRLLIYKVSNRFSGVPDRFSGSGAGTDFTLKISRVEAEDVGVYYCSQSTHVPRTFGQGTKLEIKR
0.00723 | scFv clone DC56 (scFv) scFv: QVQLVQSGAKVRQPGASVKASCKASGYTFTGYNMYWVRQAPGQGLEWMGYIDPYNGDTTYNQKFKGRVTMTTDTSTSTAYMELRSLRSDDTAVYYCARTSYYGGMDYWGRGTLVTVASGGGASGGGGSGGGGSDIVMTQTPLSSPVTLGQPASISCRSSQSLVHSNGNTYLHWLQQRPGQPPRLLIYKVSNRFSGVPDRFSGSGAGTDFTLKISRVEAEDVGVYYCSQSTHVPRTFGQGTKLEIKR
0.00291 | scFv clone CJ17 (scFv) scFv: QVQLVQSGAEVKQPGASVKVSCEASGYTFTGYNMYWVRQAPGQGLEWMGYIDPYNGDTTYNQKFKGRVTMTTDTSTSTAYMKLRSLRSDDTAVYYCARTSYYGGMDYWGRGTLVTVASGGGASGGGGSGGGGSDIVMTQTPLSSPVTLGQPASISCRSSQSLVHSNGNTYLHWLQQRPGQPPRLLIYKVSNRFSGVPDRFSGSGAGTDFTLKISRVEAEDVGVYYCSQSTHVPRTFGQGTKLEIKR
0.00798 | scFv clone DE03 (scFv) scFv: QVQLVQSGAKVKQPGASVKASCKAGGYTFTGYNMYWVRQAPGQGLEWMGYIDPYNGDTTYNQKFKGRVTMTTDTSTSTAYMELRSLRSDDTAVYYCARTSYYGGMDYWGRGTLVTVASGGGASGGGGSGGGGSDIVMTQTPLSSPVTLGQPASISCRSSQSLVHSNGNTYLHWLQQRPGQPPRLLIYKVSNRFSGVPDRFSGSGAGTDFTLKISRVEAEDVGVYYCSQSTHVPRTFGQGTKLEIKR
0.00637 | scFv clone AC75 (scFv) scFv: QVQLVQSGAEVKQPGASVKVSCKASGYTFTGYNMYWVRQAPGQGLEWMGYIDPYNGDTTYNQKFKGRVTMTTDTSTSTAYVELRSLRSDDTAVYYCARTSYYGGMDYWGRGTLVTVASGGGASGGGGSGGGGSDIVMTQTPLSSPVTLGQPASISCRSSQSLVHSNGNTYLHWLQQRPGQPPRLLIYKVSNRFSGVPDRFSGSGAGTDFTLKISRVEAEDVGVYYCSQSTHVPRTFGQGTKLEIKR
0.00826 | scFv clone CZ13 (scFv) scFv: QVQLAQSGAKVKQPGASVKASCKASGYTFTGYNMYWVRQAPGQGLEWMGYIDPYNGDTTYNQKFKGRVTMTTDTSTSTAYMELRSLRSDDTAVYYCARTSYYGGMDYWGRGTLVTVASGGGASGGGGSGGGGSDIVMTQTPLSSPVTLGQPASISCRSSQSLVHSNGNTYLHWLQQRPGQPPRLLIYKVSNRFSGVPDRFSGSGAGTDFTLKISRVEAEDVGVYYCSQSTHVPRTFGQGTKLEIKR
0.00373 | scFv clone DD25 (scFv) scFv: QVQLVQSGAKVKQPGASVKASCKASGYTFTGYNMYWVRQAPGQGLEWVGYIDPYNGDTTYNQKFKGRVTMTTDTSTSTAYMELRSLRSDDTAVYYCARTSYYGGMDYWGRGTLVTVASGGGASGGGGSGGGGSDIVMTQTPLSSPVTLGQPASISCRSSQSLVHSNGNTYLHWLQQRPGQPPRLLIYKVSNRFSGVPDRFSGSGAGTDFTLKISRVEAEDVGVYYCSQSTHVPRTFGQGTKLEIKR
0.00739 | scFv clone CX03 (scFv) scFv: QVQLVQSGAEVKQPGASVTVSCKASGYTFTGYNMYWVRQAPGQGLEWMGYIDPYNGDTTYNQKFKGRVTMTTDTSTSTAYMELRSLRSDDTAVYYCARTSYYGGMDYWGRGTLVTVASGGGASGGGGSGGGGSDIVMTQTPLSSPVTLGQPASISCRSSQSLVHSNGNTYLHWLQQRPGQPPRLLIYKVSNRFSGVPGRFSGSGAGTDFTLKISRVEAEDVGVYYCSQSTHVPRTFGQGTKLEIKR
0.00738 | scFv clone DC64 (scFv) scFv: QVQLVQSGAKVKQPGASMKASCKASGYTFTGYNMYWVRQAPGQGLEWMGYIDPYNGDTTYNQKFKGRVTMTTDTSTSTAYMELRSLRSDDTAVYYCARTSYYGGMDYWGRGTLVTVASGGGASGGGGSGGGGSDIVMTQTPLSSPVTLGQPASISCRSSQSLVHSNGNTYLHWLQQRPGQPPRLLIYKVSNRFSGVPDRFSGSGAGTDFTLKISRVEAEDVGVYYCSQSTHVPRTFGQGTKLEIKR
0.00341 | scFv clone D69 (scFv) scFv: QVQLVQSGAEVKQPGASVKVSCKASGYTFTGYNMYWVRQAPGQGLEWMGYIDPYNGDTTYNQKFKGRVTMTTDTSTSTAYMELRSLRSDDTAVYHCARTSYYGGMDYWGRGTLVTVASGGGASGGGGSGGGGSDIVMTQTPLSSPVTLGQPASISCRSSQSLVHSNGNTYLHWLQQRPGQPPRLLIYKVSNRFSGVPGRFSGSGAGTDFTLKISRVEAEDVGVYYCSQSTHVPRTFGQGTKLEIKR
0.00408 | scFv clone CZ77 (scFv) scFv: QVQLVQSGAKVKQPGASVKASCKASGYTFTGYNMYWVRQAPGQGLEWMGYIDPYNGDTTYNQKFRGRVTMTTDTSTSTAYMELRSLRSDDTAVYYCARTSYYGGMDYWGRGTLVTVASGGGASGGGGSGGGGSDIVMTQTPLSSPVTLGQPASISCRSSQSLVHSNGNTYLHWLQQRPGQPPRLLIYKVSNRFSGVPDRFSGSGAGTDFTLKISRVEAEDVGVYYCSQSTHVPRTFGQGTKLEIKR
0.00726 | scFv clone CW16 (scFv) scFv: QVQLVQSGAEVKQPGASVKVSCKASGYTFTGYNMYWVRQAPGQGLEWMGYIDPYNGDTTYNQKFKGRVTMTTDTSTSTAYMELRSLRSGDTAVYYCARTSYYGGMDYWGRGTLVTVASGGGASGGGGSGGGGSDIVMTQTPLSSPATLGQPASISCRSSQSLVHSNGNTYLHWLQQRPGQPPRLLIYKVSNRFSGVPDRFSGSGAGTDFTLKISRVEAEDVGVYYCSQSTHVPRTFGQGTKLEIKR
0.00575 | scFv clone DB29 (scFv) scFv: QVQLVQSGAKVKQPGASVKASCKASGYTFTGYNMYWVRQAPGQGLEWMGYIDPYNGDTTYNQKFKGRVTMTTDTSTSTAYMELRSLRSDDTAVYYCARTSYYGGMDYWGRGTLVTVASGGGASGGGGSGGGGSDIVMTQTPLSGPVTLGQPASISCRSSQSLVHSNGNTYLHWLQQRPGQPPRLLIYKVSNRFSGVPDRFSGSGAGTDFTLKISRVEAEDVGVYYCSQSTHVPRTFGQGTKLEIKR
0.00362 | scFv clone BF36 (scFv) scFv: QVQLVQSGAEVKQPGASVKVSCKASGYTFTGYNMYWVRQAPGQGLEWMGYIDPYNGDTTYNQRFKGRVTMTTDTSTSTAYMKLRSLRSDDTAVYYCARTSYYGGMDYWGRGALVTVASGGGASGGGGSGGGGSDIVMTQTPLSSPVTLGQPASISCRSSQSLVHSNGNTYLHWLQQRPGQPPRLLIYKVSNRFSGVPDRFSGSGAGTDFTLRISRVEAEDVGVYYCSQSTHVPRTFGQGTKLEIKR
